The values that follow come from paper PMC11259706 (The Journal of Biological Chemistry, 2024).

The target in assay [1] is T1, full-length PP5 (Homo sapiens, UniProt P53041).
T1 construct: His-tag with TEV cleavage site (N, cleaved yes); made in house; host or cells: Escherichia coli BL21 (DE3)
T1 sequence (P53041 1-499): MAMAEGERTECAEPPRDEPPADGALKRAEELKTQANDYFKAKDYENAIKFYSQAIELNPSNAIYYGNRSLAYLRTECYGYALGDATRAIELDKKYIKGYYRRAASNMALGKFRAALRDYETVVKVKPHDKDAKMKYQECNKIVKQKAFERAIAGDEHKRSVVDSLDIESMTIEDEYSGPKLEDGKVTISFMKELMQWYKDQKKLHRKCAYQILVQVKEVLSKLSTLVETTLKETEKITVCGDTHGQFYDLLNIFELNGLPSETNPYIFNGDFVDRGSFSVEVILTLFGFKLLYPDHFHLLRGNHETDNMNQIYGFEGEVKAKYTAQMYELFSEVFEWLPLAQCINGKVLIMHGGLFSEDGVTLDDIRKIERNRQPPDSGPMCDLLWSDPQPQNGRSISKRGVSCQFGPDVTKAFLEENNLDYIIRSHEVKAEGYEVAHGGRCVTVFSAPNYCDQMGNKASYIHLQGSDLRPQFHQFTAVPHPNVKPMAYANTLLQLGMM
The experiment in a line: FP competition studies. Format: binding. To be noted: for affinity relative to natural MEEVD in competition FP: acetylated pentapeptides competing with Hsp90 tracer, n = 4. The procedure: (§1) These probes were stored as 10 mM DMSO stocks at −30 °C. […] Each well received PP5 (5 μl) from a 3-fold dilution series prepared using the assay buffer. […] The plate was shielded from light and allowed to incubate at room temperature for 15 min, a duration determined to reach equilibrium during assay development. All experiments were conducted in 384-well, black, low-volume, round-bottom plates (Corning; catalog number = 4511). […] Data analysis was carried out using GraphPad Prism 6.
Samples were incubated for 5 min prior to measurements. Results were analyzed as above.

In assay [2] the target is T1, full-length PP5. As to the kind of experiment: Fluorescence polarization (FP) saturation binding of fluorescent tracers. The following applies: for direct binding of tracer relative to natural sequence: FP direct binding, n = 4. Here is the method: as §1
A general note: Polarisation of emitted light reports the rotation of a fluorescent probe.

Assay [3] has as its target protein phosphatase 5 (PP5), human, full-length (human) (UniProt P53041). As to the kind of experiment: fluorescence polarisation; competition (Fig. 1B, C, E, F): unlabelled peptide varied, PP5 at a concentration equivalent to the Kd, tracer 20 nM (tracer not named for these panels), 5 min.
The subject of a further assay is HEK293T cells. The experiment in a line: Global translation assay. Format: cell-based. To be noted: 50 μg/ml, compared to DMSO control, three independent replicates. Here is the method:
HEK293T cells (ATCC) were cultured in Dulbecco’s Modified Eagle Medium supplemented with 10% fetal bovine serum and 1% penicillin/streptomycin. These cells were maintained at 37 °C/5% CO2 in a humidified incubator. Cells were negative for mycoplasma contamination (MicroSeq; ThermoFisher Scientific) at the start of the experiments, and they were used without further authentication.
The global translation assay (Abcam; ab273286) was used to measure protein synthesis according to the manufacturer’s specifications. Briefly, in this method, O-propargyl-puromycin is used to trap actively translating ribosomes, followed by addition of a fluorescent Click probe, such that suppression of translational is measured as a decrease in fluorescence. HEK293T cells or HEK293T cells overexpressing FLAG-PP5 were cultured as above. Cells were incubated with the supplied protein label reagent and incubated for 24 h, after which the cells were washed with culture media and fixed/permeabilized for 15 min in the dark. Click reactions were carried out for 30 min, and the plate fluorescence measured at Ex/Em 494/521 nm in a SpectraMax M5 multimode plate reader.

The target in another assay is T2, PP5 (Homo sapiens, UniProt P53041).
T2 construct: His-tag with TEV cleavage site (N, cleaved yes); made in house; host or cells: Escherichia coli BL21 (DE3)
T2 sequence (P53041 1-499): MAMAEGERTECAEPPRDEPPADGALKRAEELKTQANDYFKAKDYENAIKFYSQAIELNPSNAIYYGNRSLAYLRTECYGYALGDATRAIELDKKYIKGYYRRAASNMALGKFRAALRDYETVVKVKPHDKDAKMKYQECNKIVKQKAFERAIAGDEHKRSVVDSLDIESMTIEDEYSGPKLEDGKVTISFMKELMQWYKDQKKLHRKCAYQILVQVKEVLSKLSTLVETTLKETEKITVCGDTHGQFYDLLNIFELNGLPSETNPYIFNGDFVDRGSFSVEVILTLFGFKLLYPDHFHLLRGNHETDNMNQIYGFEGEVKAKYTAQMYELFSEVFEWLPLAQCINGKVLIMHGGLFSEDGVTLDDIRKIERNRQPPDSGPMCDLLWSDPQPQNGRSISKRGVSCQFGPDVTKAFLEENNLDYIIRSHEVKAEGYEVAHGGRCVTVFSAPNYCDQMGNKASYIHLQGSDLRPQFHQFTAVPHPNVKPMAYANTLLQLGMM
As to the kind of experiment: pNPP colorimetric phosphatase assay. Format: biochemical. The following applies: peptide 100 μM. The procedure: To measure PP5’s enzyme activity, pNPP was used as substrate, as previously described ([24], [42]). Briefly, purified PP5 (1 μM) was incubated with peptides (100 μM) in 40 mM Hepes, 20 mM KCl, 5 mM MnCl2, and 1 mM DTT, pH 7.5 at 20 °C in 96-well microtiter plates (total volume 50 μl). Reactions were then initiated by addition of the pNPP substrate at concentrations from 0 to 60 mM. After 30 min, reactions were quenched with 2N NaOH (100 μl), and the release of p-nitrophenol was recorded at 410 nm (ε = 15,100 M − 1 cm−1) on a Molecular Devices M5 plate reader. Enzyme parameters (e.g., Km, kcat) were calculated using the Michaelis–Menten equation in Graphpad Prism 6.

In assay [4] the target is T3, protein phosphatase 5 (PP5), human, full-length (human, UniProt P53041 1-499).
T3 chain: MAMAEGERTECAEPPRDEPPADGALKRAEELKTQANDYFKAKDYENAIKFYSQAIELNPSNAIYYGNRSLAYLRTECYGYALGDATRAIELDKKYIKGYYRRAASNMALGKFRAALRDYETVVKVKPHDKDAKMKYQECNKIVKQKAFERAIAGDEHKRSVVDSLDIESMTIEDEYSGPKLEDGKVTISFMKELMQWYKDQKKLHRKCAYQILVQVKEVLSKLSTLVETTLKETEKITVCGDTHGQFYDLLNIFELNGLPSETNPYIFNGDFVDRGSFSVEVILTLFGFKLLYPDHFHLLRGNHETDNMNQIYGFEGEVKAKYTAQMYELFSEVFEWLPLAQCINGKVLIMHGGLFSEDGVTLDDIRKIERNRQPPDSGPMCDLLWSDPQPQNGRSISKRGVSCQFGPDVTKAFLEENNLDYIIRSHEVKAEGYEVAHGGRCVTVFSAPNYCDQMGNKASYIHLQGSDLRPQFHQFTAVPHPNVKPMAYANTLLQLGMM
The experiment in a line: FP.

In assay [5] the target is T4, protein phosphatase 5 (PP5), human, full-length (human, UniProt P53041 1-499).
T4 sequence (looked up): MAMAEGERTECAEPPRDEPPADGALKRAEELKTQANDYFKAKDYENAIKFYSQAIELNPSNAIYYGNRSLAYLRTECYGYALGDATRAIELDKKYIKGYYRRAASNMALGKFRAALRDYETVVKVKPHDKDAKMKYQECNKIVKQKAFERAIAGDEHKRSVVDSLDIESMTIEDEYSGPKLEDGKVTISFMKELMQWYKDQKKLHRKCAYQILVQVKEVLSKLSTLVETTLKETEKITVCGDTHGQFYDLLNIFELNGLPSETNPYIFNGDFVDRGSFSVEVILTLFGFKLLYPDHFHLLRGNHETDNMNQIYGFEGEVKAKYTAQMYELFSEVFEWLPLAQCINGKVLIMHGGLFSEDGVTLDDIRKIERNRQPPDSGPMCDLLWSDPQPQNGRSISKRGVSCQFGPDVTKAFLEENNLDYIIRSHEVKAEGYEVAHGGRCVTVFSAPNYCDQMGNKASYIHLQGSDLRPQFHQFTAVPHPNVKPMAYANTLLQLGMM
As to the kind of experiment: cell-based or functional assay.

For assay [6], the target named is T4, protein phosphatase 5 (PP5), human, …. The experiment in a line: fluorescence polarisation; competition with the Hsp90 tracer (Fig. 2C): PP5 at a concentration equivalent to the Kd, tracer 20 nM, 5 min. The following applies: both partners purified.
Assay [7] has the same target. As to the kind of experiment: fluorescence polarisation; saturation binding: tracer 20 nM, 3-fold dilution series of PP5; 50 mM Hepes, 75 mM NaCl, 0.001% Triton X-100, pH 7.4; room temperature, 15 min. The following applies: both partners purified.

Primed or numbered codes have the meaning given here. Where no end group is shown, it is not given here. 5FAM′ = 5-carboxyfluorescein; Ahx = NCCCCCC(=O)O

Take “WEEVD [optimized acetylated pentapeptide]”: the “affinity relative to natural MEEVD in competition FP” value on full-length PP5 [1] is reported as “tighter affinity than the natural MEEVD”.
Take 5FAM-AHX-WDDPD: the “direct binding of tracer relative to natural sequence” value at full-length PP5 [2] is given as “bound tighter than the natural sequence”.
“Hsp70 peptide with the P5 isoleucine replaced by alanine”: the Ki in assay [3] is 13.6 µM.
As for `C[C@@H]1C[C@@H]([C@H](O)CC2CC(=O)NC(=O)C2)C(=O)[C@@H](C)C1` [cycloheximide], the decrease in translation in the assay on HEK293T cells was 40%.
Turning to LSLLD [LSLLD], the “effect on Km of PP5” value on PP5 (pNPP substrate) was “both the kcat and Km were improved”. On full-length PP5 [2] (restates Fig. 5B, measured with tracer 5FAM-AHX-LSLLD, read-out: Kd of ELP1 C-terminal motif for PP5's TPR domain (restated)), the Kd was around 4 µM.
Turning to “WDDLD [optimized acetylated pentapeptide]”, the “affinity relative to natural MEEVD in competition FP” value at full-length PP5 [1] is given as “tighter affinity than the natural MEEVD”.
As to 5FAM-AHX-WDDID, on full-length PP5 [2], the “direct binding of tracer relative to natural sequence” value is recorded as “bound tighter than the natural sequence”.
Consider LSLLA, for which the “effect on PP5 enzyme activity” value on PP5 (DMSO 1%) is listed as “did not”. At full-length PP5 [1] (tracer 5FAM-AHX-LSLLD, unlabeled peptide, three independent experiments in technical triplicates), the “competition with ELP1 tracer for binding to PP5” value is “completely suppressed binding”.
Regarding “Ac-GSGPTAEEVD [Hsp70 peptide, P5 isoleucine mutation]”, on full-length PP5 [1] (read-out: Ki, FP competition (truncations and alanine scan)), the Ki was around 13.6 µM.
In [4], Ac-WDDVD [optimized acetylated pentapeptide WDDVD] displayed a Ki of 30 nM. Further, the “kcat of PP5 phosphatase activity on pNPP with peptide (100 μM); 2.5-fold” value in assay [5] was 0.24 s⁻¹.

B1: optimized acetylated pentapeptide WDDLD (peptide)
peptide: Ac-WDDLD
notes: optimized EEVD-like pentapeptide from the PSSCL screen; source: synthetic peptide
B1: in [6], the binding result is listed as “binds”.

B2: fluorescent tracer 5FAM-AHX-WDDID (peptide)
peptide: {5FAM′-Ahx}-WDDID
notes: also called WDDID tracer; source: synthetic peptide
For the molecule B2, the binding result in [7] is “binds”.

B3: fluorescent tracer 5FAM-AHX-WDDPD (peptide)
peptide: {5FAM′-Ahx}-WDDPD
notes: also called WDDPD tracer; source: synthetic peptide
Take B3: in [7], the binding result was “binds”.

B4: optimized acetylated pentapeptide WDDID (peptide)
peptide: Ac-WDDID
notes: as for B1
B4: the Ki in assay [4] came out at 60 nM. Also, in [6], the binding result is recorded as “binds”.

B5: optimized acetylated pentapeptide WDDPD (peptide)
peptide: Ac-WDDPD
notes: as for B1
In [4], B5 displayed a Ki of 40 nM. Besides, the binding result in [6] is on record as “binds”.

B6: fluorescent tracer 5FAM-AHX-WDDVD (peptide)
peptide: {5FAM′-Ahx}-WDDVD
notes: also called WDDVD tracer; source: synthetic peptide
In the case of B6, the affinity in assay [7], expressed as Kd, was 17 ± 10 nM.

B7: fluorescent tracer of the DDCP C-terminal sequence WKPVD (peptide)
peptide: WKPVD
modifications: also: fluorescent label (tracer), position not given here
notes: the label DDCP could not be tied to an entry; Probably 5FAM-AHX-labelled like the ELP1 tracer; also called DDCP tracer; source: synthetic peptide
Turning to B7, the Kd in assay [7] was above 100000 nM.
In the case of DSDSD (fluorescent label (tracer)) [fluorescent tracer of the U520 C-terminal five amino acids], the Kd in assay [7] was above 100000 nM.
The same measure, in the same setting: in the case of TMYFA (fluorescent label (tracer)) [fluorescent tracer of the AGO1 C-terminal five amino acids (negative control)] it was above 100000 nM.

B8: Hsp70 tracer 5FAM-AHX-IEEVD (peptide)
peptide: {5FAM′-Ahx}-IEEVD
notes: also called Hsp70 IEEVD tracer; source: synthetic peptide, custom synthesized by GenScript
For the molecule B8, the Kd in [7] was found to be 941 ± 70 nM.

B9: fluorescent tracer 5FAM-AHX-WEEVD (peptide)
peptide: {5FAM′-Ahx}-WEEVD
notes: also called WEEVD tracer; source: synthetic peptide
With B9, the Kd in [7] worked out at 15 ± 10 nM.

B10: ELP1 tracer 5FAM-AHX-LSLLD (peptide)
peptide: {5FAM′-Ahx}-LSLLD
notes: C-terminal five amino acids of elongator acetyltransferase complex subunit 1 (ELP1; IKBKAP); also called LSLLD tracer; source: synthetic peptide
Take B10: binding in assay [7] was characterised by a dissociation constant (Kd) of 4400 ± 800 nM.
On to LSLLD [ELP1 C-terminal pentapeptide LSLLD (unlabelled)], for which the “kcat/Km of PP5 phosphatase activity on pNPP with peptide (100 μM); 0.49 μM^−1sec^−1 without peptide” value in assay [5] came out at 1.28 μM^−1sec^−1.

By Ki is commonly meant a dissociation constant, usually derived from enzyme kinetics or from competition with a known ligand. One may read the Kd as the constant that tells how readily two partners part at equilibrium.
